Measured values reported in publication PMC3076674 (Nature structural & molecular biology, 2011).

Biological target: T1, MED25 VP16-binding domain (VBD) (human, UniProt Q71SY5 390-553)
T1 sequence (looked up): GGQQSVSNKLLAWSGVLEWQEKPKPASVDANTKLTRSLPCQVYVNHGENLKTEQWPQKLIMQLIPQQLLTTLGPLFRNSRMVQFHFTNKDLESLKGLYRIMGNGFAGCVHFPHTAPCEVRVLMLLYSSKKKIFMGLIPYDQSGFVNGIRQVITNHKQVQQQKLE
Test: ITC

B1: VP16 TAD (full-length transactivation domain, amino acids 411-490) (domain or fragment, Herpes simplex virus 1, UniProt P06492 411-490, looked up)
chain: STAPPTDVSLGDELHLDGEDVAMAHADALDDFDLDMLGDGDSPGPGFTPHDSAPYGALDMADFEFEQMFTDALGIDEYGG
Kd: ~50 nM
